Experimental data as given in patent US20200079833A1 (AstraZeneca / MedImmune, published 2020).
Starred links: 1 amine or outer side, 2 acyl side, 3 side chain; linkers in the order of their positions; H or OH if unused. Non-standard residues stand in square brackets, D forms with d. Groups on a side chain read outwards from the residue. No end group written: not given here. *: point of attachment. γGlu = O=C(O)[C@H](CCC(=O)[*:2])N[*:1]; Palmitoyl = CCCCCCCCCCCCCCCC(=O)*; αMeF = C[C@](N)(Cc1ccccc1)C(=O)O; αMeK = C[C@](N)(CCCCN)C(=O)O; αMeS = C[C@](N)(CO)C(=O)O; Aib = CC(C)(N)C(=O)O

B1: SEQ ID NO 30 (peptide)
peptide: H[Aib]EGS[αMeF]TVDV[αMeS]S[αMeF]LEGEAA[αMeK]E[αMeF]IA[αMeF]VV[αMeK]GG-NH2
modifications: N-terminus assumed
SMILES: CC[C@H](C)[C@H](NC(=O)[C@](C)(Cc1ccccc1)NC(=O)[C@H](CCC(=O)O)NC(=O)[C@](C)(CCCCN)NC(=O)[C@H](C)NC(=O)[C@H](C)NC(=O)[C@H](CCC(=O)O)NC(=O)CNC(=O)[C@H](CCC(=O)O)NC(=O)[C@H](CC(C)C)NC(=O)[C@](C)(Cc1ccccc1)NC(=O)[C@H](CO)NC(=O)[C@](C)(CO)NC(=O)[C@@H](NC(=O)[C@H](CC(=O)O)NC(=O)[C@@H](NC(=O)[C@@H](NC(=O)[C@](C)(Cc1ccccc1)NC(=O)[C@H](CO)NC(=O)CNC(=O)[C@H](CCC(=O)O)NC(=O)C(C)(C)NC(=O)[C@@H](N)Cc1c[nH]cn1)[C@@H](C)O)C(C)C)C(C)C)C(=O)N[C@@H](C)C(=O)N[C@@](C)(Cc1ccccc1)C(=O)N[C@H](C(=O)N[C@H](C(=O)N[C@@](C)(CCCCN)C(=O)NCC(=O)NCC(N)=O)C(C)C)C(C)C
B2: SEQ ID NO 25 (peptide)
peptide: H[Aib]EGS[αMeF]TGDV[αMeS]S[αMeF]LEGEAA[αMeK]E[αMeF]IA[αMeF]VV[αMeK]GG-NH2
modifications: N-terminus assumed
SMILES: CC[C@H](C)[C@H](NC(=O)[C@](C)(Cc1ccccc1)NC(=O)[C@H](CCC(=O)O)NC(=O)[C@](C)(CCCCN)NC(=O)[C@H](C)NC(=O)[C@H](C)NC(=O)[C@H](CCC(=O)O)NC(=O)CNC(=O)[C@H](CCC(=O)O)NC(=O)[C@H](CC(C)C)NC(=O)[C@](C)(Cc1ccccc1)NC(=O)[C@H](CO)NC(=O)[C@](C)(CO)NC(=O)[C@@H](NC(=O)[C@H](CC(=O)O)NC(=O)CNC(=O)[C@@H](NC(=O)[C@](C)(Cc1ccccc1)NC(=O)[C@H](CO)NC(=O)CNC(=O)[C@H](CCC(=O)O)NC(=O)C(C)(C)NC(=O)[C@@H](N)Cc1c[nH]cn1)[C@@H](C)O)C(C)C)C(=O)N[C@@H](C)C(=O)N[C@@](C)(Cc1ccccc1)C(=O)N[C@H](C(=O)N[C@H](C(=O)N[C@@](C)(CCCCN)C(=O)NCC(=O)NCC(N)=O)C(C)C)C(C)C
B3: SEQ ID NO 29 (peptide)
peptide: H[Aib]EGS[αMeF]TTDV[αMeS]S[αMeF]LEGEAA[αMeK]E[αMeF]IA[αMeF]VV[αMeK]GG-NH2
modifications: N-terminus assumed
SMILES: CC[C@H](C)[C@H](NC(=O)[C@](C)(Cc1ccccc1)NC(=O)[C@H](CCC(=O)O)NC(=O)[C@](C)(CCCCN)NC(=O)[C@H](C)NC(=O)[C@H](C)NC(=O)[C@H](CCC(=O)O)NC(=O)CNC(=O)[C@H](CCC(=O)O)NC(=O)[C@H](CC(C)C)NC(=O)[C@](C)(Cc1ccccc1)NC(=O)[C@H](CO)NC(=O)[C@](C)(CO)NC(=O)[C@@H](NC(=O)[C@H](CC(=O)O)NC(=O)[C@@H](NC(=O)[C@@H](NC(=O)[C@](C)(Cc1ccccc1)NC(=O)[C@H](CO)NC(=O)CNC(=O)[C@H](CCC(=O)O)NC(=O)C(C)(C)NC(=O)[C@@H](N)Cc1c[nH]cn1)[C@@H](C)O)[C@@H](C)O)C(C)C)C(=O)N[C@@H](C)C(=O)N[C@@](C)(Cc1ccccc1)C(=O)N[C@H](C(=O)N[C@H](C(=O)N[C@@](C)(CCCCN)C(=O)NCC(=O)NCC(N)=O)C(C)C)C(C)C
B4: SEQ ID NO 26 (peptide)
peptide: H[Aib]EGS[αMeF]TADV[αMeS]S[αMeF]LEGEAA[αMeK]E[αMeF]IA[αMeF]VV[αMeK]GG-NH2
modifications: N-terminus assumed
SMILES: CC[C@H](C)[C@H](NC(=O)[C@](C)(Cc1ccccc1)NC(=O)[C@H](CCC(=O)O)NC(=O)[C@](C)(CCCCN)NC(=O)[C@H](C)NC(=O)[C@H](C)NC(=O)[C@H](CCC(=O)O)NC(=O)CNC(=O)[C@H](CCC(=O)O)NC(=O)[C@H](CC(C)C)NC(=O)[C@](C)(Cc1ccccc1)NC(=O)[C@H](CO)NC(=O)[C@](C)(CO)NC(=O)[C@@H](NC(=O)[C@H](CC(=O)O)NC(=O)[C@H](C)NC(=O)[C@@H](NC(=O)[C@](C)(Cc1ccccc1)NC(=O)[C@H](CO)NC(=O)CNC(=O)[C@H](CCC(=O)O)NC(=O)C(C)(C)NC(=O)[C@@H](N)Cc1c[nH]cn1)[C@@H](C)O)C(C)C)C(=O)N[C@@H](C)C(=O)N[C@@](C)(Cc1ccccc1)C(=O)N[C@H](C(=O)N[C@H](C(=O)N[C@@](C)(CCCCN)C(=O)NCC(=O)NCC(N)=O)C(C)C)C(C)C
B5: SEQ ID NO 28 (peptide)
peptide: H[Aib]EGS[αMeF]TEDV[αMeS]S[αMeF]LEGEAA[αMeK]E[αMeF]IA[αMeF]VV[αMeK]GG-NH2
modifications: N-terminus assumed
SMILES: CC[C@H](C)[C@H](NC(=O)[C@](C)(Cc1ccccc1)NC(=O)[C@H](CCC(=O)O)NC(=O)[C@](C)(CCCCN)NC(=O)[C@H](C)NC(=O)[C@H](C)NC(=O)[C@H](CCC(=O)O)NC(=O)CNC(=O)[C@H](CCC(=O)O)NC(=O)[C@H](CC(C)C)NC(=O)[C@](C)(Cc1ccccc1)NC(=O)[C@H](CO)NC(=O)[C@](C)(CO)NC(=O)[C@@H](NC(=O)[C@H](CC(=O)O)NC(=O)[C@H](CCC(=O)O)NC(=O)[C@@H](NC(=O)[C@](C)(Cc1ccccc1)NC(=O)[C@H](CO)NC(=O)CNC(=O)[C@H](CCC(=O)O)NC(=O)C(C)(C)NC(=O)[C@@H](N)Cc1c[nH]cn1)[C@@H](C)O)C(C)C)C(=O)N[C@@H](C)C(=O)N[C@@](C)(Cc1ccccc1)C(=O)N[C@H](C(=O)N[C@H](C(=O)N[C@@](C)(CCCCN)C(=O)NCC(=O)NCC(N)=O)C(C)C)C(C)C
B6: SEQ ID NO 27 (peptide)
peptide: H[Aib]EGS[αMeF]TDDV[αMeS]S[αMeF]LEGEAA[αMeK]E[αMeF]IA[αMeF]VV[αMeK]GG-NH2
modifications: N-terminus assumed
SMILES: CC[C@H](C)[C@H](NC(=O)[C@](C)(Cc1ccccc1)NC(=O)[C@H](CCC(=O)O)NC(=O)[C@](C)(CCCCN)NC(=O)[C@H](C)NC(=O)[C@H](C)NC(=O)[C@H](CCC(=O)O)NC(=O)CNC(=O)[C@H](CCC(=O)O)NC(=O)[C@H](CC(C)C)NC(=O)[C@](C)(Cc1ccccc1)NC(=O)[C@H](CO)NC(=O)[C@](C)(CO)NC(=O)[C@@H](NC(=O)[C@H](CC(=O)O)NC(=O)[C@H](CC(=O)O)NC(=O)[C@@H](NC(=O)[C@](C)(Cc1ccccc1)NC(=O)[C@H](CO)NC(=O)CNC(=O)[C@H](CCC(=O)O)NC(=O)C(C)(C)NC(=O)[C@@H](N)Cc1c[nH]cn1)[C@@H](C)O)C(C)C)C(=O)N[C@@H](C)C(=O)N[C@@](C)(Cc1ccccc1)C(=O)N[C@H](C(=O)N[C@H](C(=O)N[C@@](C)(CCCCN)C(=O)NCC(=O)NCC(N)=O)C(C)C)C(C)C
B7: SEQ ID NO 32 (peptide)
peptide: H[Aib]EGS[αMeF]TSDV[αMeS]S[αMeF]LEGEAA[αMeK]E[αMeF]IA[αMeF]VV[αMeK]GGK([γGlu-Palmitoyl])-NH2
modifications: N-terminus assumed
SMILES: CCCCCCCCCCCCCCCC(=O)N[C@@H](CCC(=O)NCCCC[C@H](NC(=O)CNC(=O)CNC(=O)[C@](C)(CCCCN)NC(=O)[C@@H](NC(=O)[C@@H](NC(=O)[C@](C)(Cc1ccccc1)NC(=O)[C@H](C)NC(=O)[C@@H](NC(=O)[C@](C)(Cc1ccccc1)NC(=O)[C@H](CCC(=O)O)NC(=O)[C@](C)(CCCCN)NC(=O)[C@H](C)NC(=O)[C@H](C)NC(=O)[C@H](CCC(=O)O)NC(=O)CNC(=O)[C@H](CCC(=O)O)NC(=O)[C@H](CC(C)C)NC(=O)[C@](C)(Cc1ccccc1)NC(=O)[C@H](CO)NC(=O)[C@](C)(CO)NC(=O)[C@@H](NC(=O)[C@H](CC(=O)O)NC(=O)[C@H](CO)NC(=O)[C@@H](NC(=O)[C@](C)(Cc1ccccc1)NC(=O)[C@H](CO)NC(=O)CNC(=O)[C@H](CCC(=O)O)NC(=O)C(C)(C)NC(=O)[C@@H](N)Cc1c[nH]cn1)[C@@H](C)O)C(C)C)[C@@H](C)CC)C(C)C)C(C)C)C(N)=O)C(=O)O

The binders below were run against GLP-1 receptor (human, UniProt P43220 24-463) (assay: cell-based or functional assay).

Primary assay EC50 (cAMP), Mean pM GLP-1R	Primary assay EC50 (cAMP), n1	Primary assay EC50 (cAMP), n2	Binder
88600 pM	80 nM	97 nM	B1
544 pM	0.5 nM	0.59 nM	B2
801 pM	0.78 nM	0.82 nM	B3
123 pM	0.099 nM	0.15 nM	B4
4620 pM	4.6 nM	4.7 nM	B5
446 pM	0.42 nM	0.48 nM	B6
27 pM	0.036 nM	0.018 nM	B7

What follows are binders tested against glucagon receptor (human, UniProt P47871 26-477) (assay: cell-based or functional assay).
Sequence of glucagon receptor (P47871 26-477): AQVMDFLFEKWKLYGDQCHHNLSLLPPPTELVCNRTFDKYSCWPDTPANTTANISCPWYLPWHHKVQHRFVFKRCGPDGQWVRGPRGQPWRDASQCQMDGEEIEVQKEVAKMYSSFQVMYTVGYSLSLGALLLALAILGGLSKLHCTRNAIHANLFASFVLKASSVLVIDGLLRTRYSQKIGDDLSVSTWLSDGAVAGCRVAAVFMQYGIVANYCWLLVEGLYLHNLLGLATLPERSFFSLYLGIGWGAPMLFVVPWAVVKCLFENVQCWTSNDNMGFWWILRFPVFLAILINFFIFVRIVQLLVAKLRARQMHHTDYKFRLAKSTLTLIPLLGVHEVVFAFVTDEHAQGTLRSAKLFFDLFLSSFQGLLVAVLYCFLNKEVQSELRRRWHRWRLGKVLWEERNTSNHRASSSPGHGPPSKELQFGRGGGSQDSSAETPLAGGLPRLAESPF

Primary assay EC50 (cAMP), n1	Primary assay EC50 (cAMP), n2	Binder
100 nM	100 nM	B1
100 nM	22 nM	B2
100 nM	100 nM	B3
100 nM	30 nM	B4
100 nM	100 nM	B5
100 nM	40 nM	B6
90 nM	90 nM	B7

Each binder was assayed against T1, glucose-dependent insulinotropic peptide (gastric inhibitory polypeptide) receptor (human, UniProt P48546 22-466) (assay: cell-based or functional assay).
T1 sequence (looked up): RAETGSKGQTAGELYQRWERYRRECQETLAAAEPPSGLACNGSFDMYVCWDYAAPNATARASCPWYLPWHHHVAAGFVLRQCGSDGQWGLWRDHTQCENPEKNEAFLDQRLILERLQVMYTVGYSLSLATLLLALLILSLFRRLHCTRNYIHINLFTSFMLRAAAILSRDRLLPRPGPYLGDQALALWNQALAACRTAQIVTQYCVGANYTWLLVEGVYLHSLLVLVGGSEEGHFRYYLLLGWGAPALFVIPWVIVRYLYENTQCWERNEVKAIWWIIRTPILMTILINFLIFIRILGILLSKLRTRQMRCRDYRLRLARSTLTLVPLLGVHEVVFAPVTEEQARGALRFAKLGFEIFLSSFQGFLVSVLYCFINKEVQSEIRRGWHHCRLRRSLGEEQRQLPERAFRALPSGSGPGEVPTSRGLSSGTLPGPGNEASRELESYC

Primary assay EC50 (cAMP), n1	Primary assay EC50 (cAMP), n2	Binder
100 nM	100 nM	B1
100 nM	100 nM	B2
100 nM	100 nM	B3
100 nM	100 nM	B4
100 nM	100 nM	B5
100 nM	100 nM	B6
90 nM	90 nM	B7
